Measurements reported in publication doi:10.1101/2025.09.13.676036.

Columns and labels:
[1] = molecular target: Caldanaerovirga acetigignens double ferritin-like protein (Caldanaerovirga acetigignens); assay: SEC-MALS
[2] = molecular target: Thermocrinis minervae double ferritin-like protein (Thermocrinis minervae); assay: SEC-MALS
[3] = molecular target: Thermocrinis minervae double ferritin-like protein (Thermocrinis minervae); assay: SEC-SAXS

Row | stoichiometry N [1] | stoichiometry N [2] | stoichiometry N [3] | Substance
1 | 2 |  |  | Caldanaerovirga acetigignens double ferritin-like protein (enzyme)
2 |  | 2 | 2 | Thermocrinis minervae double ferritin-like protein (enzyme)
